The test concerns the target HA-APP (full-length, APP695 spliced isoform), P05067. The experiment in a line: ELISA. For orientation: An ELISA detects its analyte on a solid surface through an enzyme-linked reagent.

B1: MDGA1-Fc (MDGA1 extracellular domains fused to human Fc) (Fc fusion)
chain: QGVYAPAQAQIVHAGQACVVKEDNISERVYTIRESDTLVLQCLVTGHPRPQVRWTKTAGSASDKFQETSVFNETLRIERIARTQGGRYYCKAENGVGVPAIKSIRVDVQYLDEPVLTVHQTVSDVRGNFYQEKTVFLRCTVSSNPPARFIWKRGSDTLSHSQDNGVDIYEPLYTQGETKVLKLKNLRPQDYASYTCQVSVRNVCGIPDKSITFQLTNTTAPPTLKLSVNETLVVNPGENVTVQCLLTGGDPLPQLHWSHGPGPLPLGALAQGGTLSIPSVQARDSGYYNCTATNNVGNPAKKTVNLLVRSLKNATFQITPDMIKESENIQLGQDLKLSCHVDAVPQEKVNYQWFKNGKPARTSKRLLVTRNDPELPAVTSSLELIDLHFSDYGTYLCVASFPGSPVPDLSVEVNISSETVPPTISVPKGRAVVTVREGSPAELQCEVRGKPRPPVLWSRVDKEAALLPSGLALEETPDGKLRVERVSREMSGTYRCQTARYNGFNVRAREAQVQLTVHFPPEVEPSSQDVRQALGRPVLLRCSLLRGSPQRIASAVWRFKGQLLPPPPVLPAAAAEGPDHAELRLDALTRDSSGNYECSVSNDVGSATCLFQVSAKAYSPEFYFDTPNPTRSHKLSKNYSYVLQWTQREPDAVDPVLNYRLSIRQLNQHNAMVKAIPVRRVEKGQLLEYTLTDLRVPHSYEIHLTPYTTFGAGDMASRVIHYTEPINSPSLSDNTCHFEDEKICGYTQDLTDNFDWTRQNALTQNPKRSPNTGPPTDISGTPEGYYMFIETSRPRELGDRARLVSPLYNASAKFYCVSFFYHMYGKHIGSLNLLVRSRNKGTLDTHAWSLSGNKGNVWQQAHVPINPSGPFQIIFEGVRGSGYLGDIAIDDVTLKKGECPRRQMDPNKVVVMPGS
modifications: not checked
Consider B1, for which the Kd was determined as 84.7 nM.

(Values after paper PMC8795569.)
